Stoichiometry N data for 1 substance are collected here from PMC11831279.

For assay [1], the target named is PEDV spike ectodomain (S-ECD, amino acids 1 to 1325) fused with a T4 foldon at the C-terminus (porcine epidemic diarrhea virus (strain dndz) | bacteriophage T4 (printed as T4)). Put plainly: transmission electron microscopy; TEM of the purified S protein.
Assay [2] has the same target. Briefly: SEC. In general terms: SEC sorts molecules by how far they enter the pores of the column.

In the case of “PEDV spike ectodomain (S-ECD, amino acids 1 to 1325) fused with a T4 foldon at the C-terminus (domain or fragment)”, the stoichiometry N in assay [1] and in assay [2] was 3 each time.

As a reminder, the stoichiometry N is a count of units in the complex or per binding partner.
